In publication PMC10666288, “Unveiling the Catalytic Mechanism of a Processive Metalloaminopeptidase” (Biochemistry, 2023):

Experiments:
[1] = system: CC(C)C[C@H](N)C(=O)Nc1ccc([N+](=O)[O-])cc1; assay: purified protein, by the assay type; details: 25.0 °C
[2] = system: N=C(N)NCCC[C@H](N)C(=O)Nc1ccc([N+](=O)[O-])cc1; assay: purified protein, by the assay type; details: other: aa-pNA varied, 3 mM MnCl2, 100 nM PaPepA, pH 8.0, 25 °C, pH 8.0

**Q.** For “PaPepA (Pseudomonas aeruginosa UCBPP-PA14)”, which Km ([1]; other: 5 % PEG 8000, Leu-pNA varied) is on record?
**A.** 110 µM

**Q.** What about the Km ([1]; other: H2O (0% PEG-8000), Leu-pNA varied) of the same substance?
**A.** 86.9 µM

**Q.** What about the Km [2] of the same substance?
**A.** 120 ± 20 µM

**Q.** And the kcat [2]?
**A.** 0.052 s⁻¹

**Q.** And the kcat/Km [2]?
**A.** 440 M⁻¹ s⁻¹
